T1: human FcγRIIa on THP-1 cells (human, UniProt P12318 34-317)
T1 sequence (looked up): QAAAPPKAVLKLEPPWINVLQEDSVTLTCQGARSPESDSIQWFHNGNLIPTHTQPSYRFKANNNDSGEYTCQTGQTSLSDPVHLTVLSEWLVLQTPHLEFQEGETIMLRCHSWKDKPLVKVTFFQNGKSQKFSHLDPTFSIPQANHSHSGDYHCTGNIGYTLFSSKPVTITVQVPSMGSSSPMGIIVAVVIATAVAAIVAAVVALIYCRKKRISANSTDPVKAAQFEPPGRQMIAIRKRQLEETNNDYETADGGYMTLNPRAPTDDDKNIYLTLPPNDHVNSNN

B1: Fc-ΔG236 (other)
chain: DKTHTCPPCPAPELLGPSVFLFPPKPKDTLMISRTPEVTCVVVDVSHEDPEVKFNWYVDGVEVHNAKTKPREEQYNSTYRVVSVLTVLHQDWLNGKEYKCKVSNKALPAPIEKTISKAKGQPREPQVYTLPPSRDELTKNQVSLTCLVKGFYPSDIAVEWESNGQPENNYKTTPPVLDSDGSFFLYSKLTVDKSRWQQGNVFSCSVMHEALHNHYTQKSLSLSPGK
B2: Fc-ΔG236-MST-HN (other)
chain: B1 chain with M31Y, S33T, T35E, H212K, N213F
B3: Fc-G236A-MST-HN (other, human, UniProt P01857-1 104-330, looked up)
chain: DKTHTCPPCPAPELLAGPSVFLFPPKPKDTLYITREPEVTCVVVDVSHEDPEVKFNWYVDGVEVHNAKTKPREEQYNSTYRVVSVLTVLHQDWLNGKEYKCKVSNKALPAPIEKTISKAKGQPREPQVYTLPPSRDELTKNQVSLTCLVKGFYPSDIAVEWESNGQPENNYKTTPPVLDSDGSFFLYSKLTVDKSRWQQGNVFSCSVMHEALKFHYTQKSLSLSPGK
notes: domain: Fc fragment; EU numbering
B4: human FcγRIIIb-NA2 (receptor, UniProt O75015 17-200, looked up)
chain: GMRTEDLPKAVVFLEPQWYSVLEKDSVTLKCQGAYSPEDNSTQWFHNESLISSQASSYFIDAATVNDSGEYRCQTNLSTLSDPVQLEVHIGWLLLQAPRWVFKEEDPIHLRCHSWKNTALHKVTYLQNGKDRKYFHHNSDFHIPKATLKDSGSYFCRGLVGSKNVSSETVNITITQGLAVSTIS
modifications: C-terminal biotin
notes: In-house, C-terminally biotinylated; captured on a streptavidin sensor; also called hFcγRIIIb-NA2
B5: human FcγRIIIb-NA1 (receptor, UniProt O75015 17-200, looked up)
chain: B4 chain with S20R, S49N, N66D, I90V
modifications: C-terminal biotin
notes: In-house, C-terminally biotinylated; captured on a streptavidin sensor; also called hFcγRIIIb-NA1
B6: human FcγRIIa-131R (receptor, UniProt P12318 34-218, looked up)
chain: QAAAPPKAVLKLEPPWINVLQEDSVTLTCQGARSPESDSIQWFHNGNLIPTHTQPSYRFKANNNDSGEYTCQTGQTSLSDPVHLTVLSEWLVLQTPHLEFQEGETIMLRCHSWKDKPLVKVTFFQNGKSQKFSRLDPTFSIPQANHSHSGDYHCTGNIGYTLFSSKPVTITVQVPSMGSSSPMGI
modifications: C-terminal biotin
notes: Bought, C-terminally biotinylated; captured on a streptavidin sensor
B7: Fc-MST-HN (other, human, UniProt P01857-1 104-330, looked up)
chain: B3 chain with A16G
notes: domain: Fc fragment; MST-HN = M252Y S254T T256E H433K N434F (EU numbering); also called IgG1-Fc MST-HN
B8: human FcγRIIa-131H (receptor, UniProt P12318 34-218, looked up)
chain: B6 chain with R134H
modifications: C-terminal biotin
notes: as for B6
B9: human FcγRIIb (receptor, UniProt P31994 43-217, looked up)
chain: TPAAPPKAVLKLEPQWINVLQEDSVTLTCRGTHSPESDSIQWFHNGNLIPTHTQPSYRFKANNNDSGEYTCQTGQTSLSDPVHLTVLSEWLVLQTPHLEFQEGETIVLRCHSWKDKPLVKVTFFQNGKSKKFSRSDPNFSIPQANHSHSGDYHCTGNIGYTLYSSKPVTITVQAP
modifications: C-terminal biotin
notes: Bought, C-terminally biotinylated; captured on a streptavidin sensor; also called hFcγRIIb

Where a chain is given by its changes, count along the chain named. Names and notes keep the numbering of the source. Where only a bound is given, the exact number is not on record here.

Assay [1] concerns the target T2, soluble human FcRn (human, UniProt P55899 24-297; P61769 21-119).
T2 construct: Made in HEK293F cells from two vectors; also called sFcRn; not shown: C-terminal BirA deca-His-tag
The assay is described as follows: SPR (IBIS MX96), Fc fragment immobilised, soluble FcRn titrated, pH 6.0, equilibrium 1:1 fit. The procedure: (§1) Regeneration of the sensor surface between the cycles was performed by injection of 10 mM Gly-HCl pH 2.4. Affinity calculations were carried out by performing an equilibrium analysis interpolating to an Rmax of 200 to 600, depending on the assay, and fitting a 1:1 Langmuir binding model, assuming equilibrium to be reached after 360s of IgG-Fc containing analyte injections. Analysis and calculations were performed using Scrubber Software Version 2 (BioLogic Software), Excel (Microsoft) and Graphpad Prism (Prism).
(§2) Sensorgrams of a representative of three independent affinity measurements were used to determine the binding of the human IgG1-Fc variants to human FcγRs and human FcRn at pH 7.4 and pH 6.0. […] KD values were derived by performing an equilibrium analysis and fitting a 1:1 Langmuir binding model. […] No binding was marked as non-determinable (n.d.). Data are presented in Tables S1-S4 as mean±standard deviation.

Assay [2] addresses T2, soluble human FcRn. Description: SPR (IBIS MX96), Fc fragment immobilised, soluble FcRn titrated, pH 7.4, equilibrium 1:1 fit. The procedure: as §1, §2
The assay “human FcγRIIa-131H” concerns the target B8. The assay is described as follows: SPR, Fc fragments on captured FcγRs, pH 7.4. The method, then: as §1, with “The sensor surface was regenerated between the cycles by subsequent injections of 20 mM Tris-HCl, 150 mM NaCl pH 8.8 and 20 mM H₃PO₄ pH 2.4. […] Regeneration” for “Regeneration”
Background: SPR reads the build-up and loss of mass on a sensor chip optically.

The target in the assay “human FcγRIIa-131R” is B6. The assay is described as follows: SPR, Fc fragments on captured FcγRs, pH 7.4. The procedure:
as §1, with “The sensor surface was regenerated between the cycles by subsequent injections of 20 mM Tris-HCl, 150 mM NaCl pH 8.8 and 20 mM H₃PO₄ pH 2.4. […] Regeneration” for “Regeneration”

In assay [3] the target is human FcRn, endogenous, in THP-1 cells and blood monocytes (human, UniProt P55899 24-365; P61769 21-119). Description: cell-based or functional assay.
In assay [4] the target is T1, human FcγRIIa on THP-1 cells. Description: cell-based or functional assay.
The next assay addresses T3, human FcγRIa (human, UniProt P12314 16-288).
T3 construct: Bought, C-terminally His-tagged; captured on the sensor by biotinylated anti-His mIgG1; also called hFcγRIa; not shown: C-terminal His tag
The assay is described as follows: SPR (IBIS MX96), FcγR captured on sensor, Fc fragment titrated, pH 7.4, equilibrium 1:1 fit. The method, then:
as §1, with “The sensor surface was regenerated between the cycles by subsequent injections of 20 mM Tris-HCl, 150 mM NaCl pH 8.8 and 20 mM H₃PO₄ pH 2.4. […] Regeneration” for “Regeneration”

The target of a further assay is T4, Fc-G236A (human, UniProt P01857-1 104-330 = IgG part, G236A).
T4 construct: domain: Fc fragment; Positions in EU numbering; also called IgG1-Fc G236A
The description is as above. The procedure: as §1, with “The sensor surface was regenerated between the cycles by subsequent injections of 20 mM Tris-HCl, 150 mM NaCl pH 8.8 and 20 mM H₃PO₄ pH 2.4. […] Regeneration” for “Regeneration”

The target in the assay “Fc-MST-HN” is B7. The description is as above. The method, then:
as §1, with “The sensor surface was regenerated between the cycles by subsequent injections of 20 mM Tris-HCl, 150 mM NaCl pH 8.8 and 20 mM H₃PO₄ pH 2.4. […] Regeneration” for “Regeneration”

The target of the assay “Fc-G236A-MST-HN” is B3. Described as above. The method, then:
as §1, with “The sensor surface was regenerated between the cycles by subsequent injections of 20 mM Tris-HCl, 150 mM NaCl pH 8.8 and 20 mM H₃PO₄ pH 2.4. […] Regeneration” for “Regeneration”

A further assay addresses T5, Fc-IHH (human, UniProt P01857-1 104-330 = IgG part, I253A; H310A; H435A).
T5 construct: domain: Fc fragment; IHH = I253A H310A H435A (EU numbering); also called IgG1-Fc-IHH
The assay is described as above. The procedure: as §1, with “The sensor surface was regenerated between the cycles by subsequent injections of 20 mM Tris-HCl, 150 mM NaCl pH 8.8 and 20 mM H₃PO₄ pH 2.4. […] Regeneration” for “Regeneration”

The target of a further assay is T6, Fc-WT (human, UniProt P01857-1 104-330 = IgG part, limits assumed).
T6 construct: domain: Fc fragment; Fc-only fragment made by Evitria; also called IgG1-Fc wild-type; human IgG1-Fc fragment WT
The description is as above. The procedure: as §1, with “The sensor surface was regenerated between the cycles by subsequent injections of 20 mM Tris-HCl, 150 mM NaCl pH 8.8 and 20 mM H₃PO₄ pH 2.4. […] Regeneration” for “Regeneration”

A further assay addresses T7, human FcγRIIIa-158F (human, UniProt P08637 17-208, C-terminal biotin).
T7 construct: Bought, C-terminally biotinylated; captured on a streptavidin sensor; also called hFcγRIIIa-158F
The assay is described as follows: SPR, Fc fragments on captured FcγRs, pH 7.4. The procedure: as §1, with “The sensor surface was regenerated between the cycles by subsequent injections of 20 mM Tris-HCl, 150 mM NaCl pH 8.8 and 20 mM H₃PO₄ pH 2.4. […] Regeneration” for “Regeneration”

For a further assay, the target named is T8, human FcγRIIIa-158V (human, UniProt P08637 17-208, C-terminal biotin).
T8 construct: Bought, C-terminally biotinylated; captured on a streptavidin sensor; also called hFcγRIIIa-158V
The assay is described as follows: SPR, Fc fragments on captured FcγRs, pH 7.4. The procedure:
as §1, with “The sensor surface was regenerated between the cycles by subsequent injections of 20 mM Tris-HCl, 150 mM NaCl pH 8.8 and 20 mM H₃PO₄ pH 2.4. […] Regeneration” for “Regeneration”

The assay “human FcγRIIIb-NA1” concerns the target B5. Description: SPR, Fc fragments on captured FcγRs, pH 7.4. The procedure:
as §1, with “The sensor surface was regenerated between the cycles by subsequent injections of 20 mM Tris-HCl, 150 mM NaCl pH 8.8 and 20 mM H₃PO₄ pH 2.4. […] Regeneration” for “Regeneration”

In the assay “human FcγRIIIb-NA2” the target is B4. Description: SPR, Fc fragments on captured FcγRs, pH 7.4. The method, then:
as §1, with “The sensor surface was regenerated between the cycles by subsequent injections of 20 mM Tris-HCl, 150 mM NaCl pH 8.8 and 20 mM H₃PO₄ pH 2.4. […] Regeneration” for “Regeneration”

T2 sequence (P55899 24-297, chain 1 of 2): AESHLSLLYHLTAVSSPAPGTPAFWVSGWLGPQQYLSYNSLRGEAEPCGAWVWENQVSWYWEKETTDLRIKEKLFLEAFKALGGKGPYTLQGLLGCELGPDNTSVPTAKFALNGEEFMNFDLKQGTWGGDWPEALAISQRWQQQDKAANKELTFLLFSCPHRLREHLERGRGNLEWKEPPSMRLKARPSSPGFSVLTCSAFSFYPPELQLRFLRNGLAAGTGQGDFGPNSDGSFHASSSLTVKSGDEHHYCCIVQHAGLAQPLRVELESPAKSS
T2 sequence (P61769 21-119, chain 2 of 2): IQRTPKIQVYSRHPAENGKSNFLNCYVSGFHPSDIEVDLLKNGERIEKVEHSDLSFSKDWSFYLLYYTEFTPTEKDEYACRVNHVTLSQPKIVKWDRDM
T3 sequence (P12314 16-288 limits assumed): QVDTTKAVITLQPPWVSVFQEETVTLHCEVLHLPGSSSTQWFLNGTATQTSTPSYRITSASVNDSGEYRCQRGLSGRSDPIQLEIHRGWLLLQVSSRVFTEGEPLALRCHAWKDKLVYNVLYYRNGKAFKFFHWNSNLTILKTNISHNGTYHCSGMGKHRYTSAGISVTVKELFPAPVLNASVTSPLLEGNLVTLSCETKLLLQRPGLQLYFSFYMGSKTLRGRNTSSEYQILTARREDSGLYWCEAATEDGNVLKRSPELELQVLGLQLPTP
Sequence of human FcRn, endogenous, in THP-1 cells and blood monocytes (P55899 24-365 limits assumed, chain 1 of 2): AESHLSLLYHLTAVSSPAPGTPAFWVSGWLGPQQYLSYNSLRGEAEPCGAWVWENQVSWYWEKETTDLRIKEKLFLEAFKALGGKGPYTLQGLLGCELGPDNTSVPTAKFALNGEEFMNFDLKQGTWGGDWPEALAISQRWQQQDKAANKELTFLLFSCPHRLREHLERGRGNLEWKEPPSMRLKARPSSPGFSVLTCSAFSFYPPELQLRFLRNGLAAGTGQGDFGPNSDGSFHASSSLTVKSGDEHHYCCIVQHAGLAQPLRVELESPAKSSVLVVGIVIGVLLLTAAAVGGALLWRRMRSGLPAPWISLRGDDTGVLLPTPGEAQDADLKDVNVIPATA
Sequence of human FcRn, endogenous, in THP-1 cells and blood monocytes (P61769 21-119 limits assumed, chain 2 of 2): as the sequence (P61769 21-119, chain 2 of 2) above

A word on the Kd: it is the equilibrium constant for the complex coming apart. A lower Kd goes with tighter binding. With B1, the Kd in the assay with soluble human FcRn [1] is 130 nM. In other words, the sub-micromolar range.

Turning to B2, the Kd was 15.4 nM with soluble human FcRn [1] and 1420 nM with soluble human FcRn [2].

Consider B3, for which the Kd was determined as 23.4 nM with soluble human FcRn [1], 10.8 nM with human FcγRIa and 1340 nM with soluble human FcRn [2]. Moreover, the “fold increase in affinity compared to Fc-MST-HN” value with human FcγRIIa-131H is ~9 fold; in the assay with human FcγRIIa-131R it was ~6 fold. Besides, the “fold increase in binding compared to Fc-WT” value with human FcγRIIa-131H and with human FcγRIIa-131R was 2 fold in each case. The “Fold-intensity of intracellular accumulation compared to Fc-WT (Image Stream, THP-1 cells)” value in [3] and in assay [4] was 1.87 fold of Fc-WT throughout.

On to B4, for which the Kd in the assay with Fc-G236A, with Fc-MST-HN, with Fc-G236A-MST-HN, with Fc-IHH and with Fc-WT was > 2000 nM throughout.

As to B5, the Kd in the assay with Fc-G236A, with Fc-MST-HN, with Fc-G236A-MST-HN, with Fc-IHH and with Fc-WT was > 2000 nM each time.

Consider B6, for which the Kd with Fc-G236A is 166 nM; in the assay with Fc-MST-HN, 1640 nM; with Fc-G236A-MST-HN, 269 nM; with Fc-IHH, > 2000 nM.

In the case of B7, the Kd is 18.9 nM in the assay with soluble human FcRn [1], 5.9 nM in the assay with human FcγRIa and 1410 nM in the assay with soluble human FcRn [2]. Besides, the “fold reduction in binding compared to Fc-WT” value with human FcγRIIa-131H, in the assay with human FcγRIIIa-158F, with human FcγRIIa-131R, with human FcγRIIIa-158V, in the assay with human FcγRIIIb-NA1 and in the assay with human FcγRIIIb-NA2 was ≥ 3 fold in each case.

Consider B8, for which the Kd was 91.1 nM with Fc-G236A, 1650 nM with Fc-MST-HN, 189 nM in the assay with Fc-G236A-MST-HN and > 2000 nM in the assay with Fc-IHH.

Turning to B9, the Kd in the assay with Fc-G236A, with Fc-MST-HN, with Fc-G236A-MST-HN and with Fc-IHH was > 2000 nM each time.

Values taken from US20250101111A1 (ARGENX, published 2025).
